Experiments:
[1] = molecular target: HLA-A*68:02; assay: IEDB peptide-MHC binding, cellular MHC/competitive/fluorescence; ≥ and ≤ were set here for values at or beyond the usual limits of such assays
[2] = molecular target: HLA-A*02:01; assay: IEDB peptide-MHC binding, purified MHC/competitive/radioactivity; ≥ and ≤ were set here for values at or beyond the usual limits of such assays
[3] = molecular target: HLA-A*02:02; assay: as above
[4] = molecular target: HLA-A*02:03; assay: as above
[5] = molecular target: HLA-A*02:06; assay: as above
[6] = source organism: Vaccinia virus WR
[7] = source organism: Mammarenavirus lassaense
[8] = source organism: Hepacivirus hominis

| Sequence | IC50 ([1]; source organism: SARS-CoV1) [nM] | IC50 ([2]; source organism: SARS-CoV1) [nM] | IC50 ([3]; source organism: SARS-CoV1) [nM] | IC50 ([4]; source organism: SARS-CoV1) [nM] | IC50 ([5]; source organism: SARS-CoV1) [nM] | IC50 [1, 6] [nM] | IC50 [2, 6] [nM] | IC50 [3, 6] [nM] | IC50 [4, 6] [nM] | IC50 [5, 6] [nM] | also measured |
| --- | --- | --- | --- | --- | --- | --- | --- | --- | --- | --- | --- |
| YALCTLLHL | 5620 | 8.7 | 1320 | 768 | 1.5 | – | – | – | – | – | – |
| RALKAYFTA | – | – | – | – | – | 11400 | 158 | 2350 | 204 | 14 | – |
| LLLENKSLTI | – | – | – | – | – | 9580 | 439 | 982 | 985 | 1320 | – |
| FLTNKLLLFA | 11700 | 6.2 | 0.42 | 1.4 | 7.5 | – | – | – | – | – | – |
| GIAIFNNRNL | – | – | – | – | – | 11100 | 1330 | 5.1 | 2040 | 4720 | – |
| RIKSVLDII | – | – | – | – | – | 14500 | 4700 | 111 | 18 | 2080 | – |
| SLVTSFLLM | 50100 | 271 | 66 | 49 | 257 | – | – | – | – | – | – |
| VMPEKRNVV | – | – | – | – | – | 6590 | 495 | 1100 | 23 | 3290 | – |
| IMAFILGIII | – | – | – | – | – | 14700 | 1110 | 632 | 3160 | 3190 | – |
| SALMTLDDLA | – | – | – | – | – | 19100 | 249 | 210 | 2320 | 193 | – |
| LLWDYMCIS | – | – | – | – | – | – | – | – | – | – | IC50 [1, 7]: 12700 nM; IC50 [2, 7]: 45 nM; IC50 [3, 7]: 147 nM; IC50 [4, 7]: 597 nM; IC50 [5, 7]: 408 nM |
| LLSTTEWQV | – | – | – | – | – | – | – | – | – | – | IC50 [1, 8]: 27300 nM; IC50 [2, 8]: 67 nM; IC50 [3, 8]: 4.9 nM; IC50 [4, 8]: 95 nM; IC50 [5, 8]: 333 nM |
| AIYVFCISL | 5470 | 119 | 143 | 201 | 48 | – | – | – | – | – | – |
| AQMGTLLIA | 12200 | 37 | 65 | 1.6 | 0.44 | – | – | – | – | – | – |
| KINEMVDEL | – | – | – | – | – | 48400 | 291 | 1.4 | 76 | 317 | – |
| ATLNTLITL | – | – | – | – | – | 5360 | 57 | 373 | 577 | 9.6 | – |
| KLFTIAMWLL | 9420 | 30 | 8.5 | 709 | 262 | – | – | – | – | – | – |
| ALVSGTATA | 31300 | 134 | 4.6 | 8.1 | 269 | – | – | – | – | – | – |
| MMQNDYGGM | – | – | – | – | – | ≥ 70000 | 1280 | 1080 | 2740 | 1660 | – |
| ALTDVEKRIL | – | – | – | – | – | 13800 | 429 | 97 | 127 | 934 | – |
| HLDGEVLSL | 13600 | 67 | 66 | 131 | 160 | – | – | – | – | – | – |
| IAMWLLLLSI | 17200 | 216 | 86 | 1900 | 498 | – | – | – | – | – | – |
| VQFSILNNPV | – | – | – | – | – | 39700 | 1910 | 131 | 369 | 186 | – |
| YLPEVISTIA | – | – | – | – | – | 7130 | 29 | 11 | 0.96 | 18 | – |
| IMRNFLRSIA | – | – | – | – | – | 54200 | 813 | 60 | 122 | 544 | – |
| GMYYPTNDI | – | – | – | – | – | ≥ 70000 | 268 | 53 | 8.7 | 1680 | – |
| SQMETDFLEL | 20100 | 92 | 227 | 597 | 21 | – | – | – | – | – | – |

— the Immune Epitope Database (IEDB)
